From article PMC4173072, “A truncated form of the Carbon catabolite repressor 1 increases cellulase production in Trichoderma reesei”

Target: CREI-96 (truncated Carbon catabolite repressor 1, Cre1-96) (Trichoderma reesei Rut-C30, UniProt G0RB08 1-96)
Experiment: competition; 2000 nM protein; 50-, 100-, 200-fold competitor against N1; bands unchanged; GST elution buffer, 10 min at 22 °C; non-denaturing PAGE; salt and pH not stated
Details: protein: recombinant; tags: GST fusion (37 kDa), thrombin-cleaved before use; label: unlabelled; blunt

CREI-96 (truncated Carbon catabolite repressor 1, Cre1-96), sequence (G0RB08 entry or part of it): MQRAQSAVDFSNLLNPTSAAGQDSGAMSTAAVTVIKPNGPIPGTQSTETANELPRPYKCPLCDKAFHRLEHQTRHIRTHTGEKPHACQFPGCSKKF

B1: mutated cold competitor RG221/RG222 (dsDNA)
DNA 1: CCAACGGCTTGTTGGGTTGCAGAAGCAACGGCAAAGCCCAACTTCCCAACGTTTGTTTCT
DNA 2: AGAAACAAACGTTGGGAAGTTGGGCTTTGCCGTTGCTTCTGCAACCCAACAAGCCGTTGG
binding result: no binding
